Test results reported in patent US20180155451A1 (published 2018).

T1: FcγRIIb extracellular domain with C-terminal His tag (human, UniProt P31994 43-217)
T1 construct: extracellular domain; expressed in FreeStyle293 cells; analyte in the Biacore assay; also called FcgRIIb; 2b; not shown: His tag at the C terminus
T1 sequence (looked up): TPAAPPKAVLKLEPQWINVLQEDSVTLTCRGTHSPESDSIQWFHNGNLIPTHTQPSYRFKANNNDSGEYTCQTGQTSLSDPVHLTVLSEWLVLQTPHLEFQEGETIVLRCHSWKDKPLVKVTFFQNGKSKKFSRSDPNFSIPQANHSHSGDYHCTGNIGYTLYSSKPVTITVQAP

B1: GpH7-B3 variant K326_07I/GpL16-k0 (antibody, human IgG1, kappa)
heavy: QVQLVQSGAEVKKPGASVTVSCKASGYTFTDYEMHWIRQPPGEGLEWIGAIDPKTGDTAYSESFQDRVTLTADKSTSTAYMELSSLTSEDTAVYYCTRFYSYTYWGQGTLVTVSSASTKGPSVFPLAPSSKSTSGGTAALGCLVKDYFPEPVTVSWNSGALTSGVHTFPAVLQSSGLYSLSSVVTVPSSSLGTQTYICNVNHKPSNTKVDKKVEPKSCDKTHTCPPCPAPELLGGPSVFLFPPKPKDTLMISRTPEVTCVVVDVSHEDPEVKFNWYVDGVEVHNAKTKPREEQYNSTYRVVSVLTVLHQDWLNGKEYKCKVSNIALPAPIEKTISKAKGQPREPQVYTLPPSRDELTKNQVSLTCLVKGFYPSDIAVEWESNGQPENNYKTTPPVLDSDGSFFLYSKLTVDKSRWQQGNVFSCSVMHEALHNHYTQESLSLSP
light: DIVMTQSPLSLPVTPGEPASISCQASESLVHSNRNTYLHWYLQKPGQSPQLLIYKVSNRFSGVPDRFSGSGSGTDFTLKISRVEAEDVGVYYCSQNTHVPPTFGQGTKVEIERTVAAPSVFIFPPSDEQLKSGTASVVCLLNNFYPREAKVQWKVDNALQSGNSQESVTEQDSKDSTYSLSSTLTLSKADYEKHKVYACEVTHQGLSSPVTKSFNRGEC
notes: homodimerized; mutation in both H chains; also called Ho Ab K326_07I
B2: GpH7-B3 variant I332_10E/GpL16-k0 (antibody, human IgG1, kappa)
heavy: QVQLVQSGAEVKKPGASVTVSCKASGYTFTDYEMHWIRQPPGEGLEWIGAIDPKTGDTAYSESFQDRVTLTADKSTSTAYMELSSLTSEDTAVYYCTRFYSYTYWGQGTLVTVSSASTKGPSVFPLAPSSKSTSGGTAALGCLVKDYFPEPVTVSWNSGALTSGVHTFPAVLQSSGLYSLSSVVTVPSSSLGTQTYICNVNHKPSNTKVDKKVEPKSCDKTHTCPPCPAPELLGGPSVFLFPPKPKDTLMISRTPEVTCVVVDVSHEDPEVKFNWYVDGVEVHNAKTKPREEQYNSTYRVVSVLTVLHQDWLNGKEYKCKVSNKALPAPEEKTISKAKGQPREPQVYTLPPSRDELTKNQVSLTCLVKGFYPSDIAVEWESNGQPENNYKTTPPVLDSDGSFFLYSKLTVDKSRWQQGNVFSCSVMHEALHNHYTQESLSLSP
light: B1 light
notes: homodimerized; mutation in both H chains; also called Ho Ab I332_10E
B3: GpH7-B3 variant I332_06M/GpL16-k0 (antibody, human IgG1, kappa)
heavy: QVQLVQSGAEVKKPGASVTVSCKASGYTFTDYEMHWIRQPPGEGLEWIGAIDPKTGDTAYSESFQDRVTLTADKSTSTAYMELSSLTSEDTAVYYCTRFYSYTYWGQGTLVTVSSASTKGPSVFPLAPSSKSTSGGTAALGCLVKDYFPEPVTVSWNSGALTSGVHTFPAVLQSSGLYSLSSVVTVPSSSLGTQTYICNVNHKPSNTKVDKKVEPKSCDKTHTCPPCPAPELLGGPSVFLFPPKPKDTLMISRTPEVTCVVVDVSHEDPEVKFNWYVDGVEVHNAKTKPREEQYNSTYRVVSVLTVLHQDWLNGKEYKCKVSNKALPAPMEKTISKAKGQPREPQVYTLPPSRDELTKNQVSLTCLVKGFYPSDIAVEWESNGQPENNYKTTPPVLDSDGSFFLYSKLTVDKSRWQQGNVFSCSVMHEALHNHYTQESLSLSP
light: B1 light
notes: homodimerized; mutation in both H chains; also called Ho Ab I332_06M
B4: GpH7-B3 variant G236_09D/GpL16-k0 (antibody, human IgG1, kappa)
heavy: not shown
light: B1 light
notes: homodimerized; mutation in both H chains; also called Ho Ab G236_09D
B5: GpH7-B3 variant A327_09D/GpL16-k0 (antibody, human IgG1, kappa)
heavy: not shown
light: B1 light
notes: homodimerized; mutation in both H chains; also called Ho Ab A327_09D
B6: GpH7-B3 variant G237_20W/GpL16-k0 (antibody, human IgG1, kappa)
heavy: not shown
light: B1 light
notes: homodimerized; mutation in both H chains; also called Ho Ab G237_20W
B7: GpH7-B3 variant I332_15Y/GpL16-k0 (antibody, human IgG1, kappa)
heavy: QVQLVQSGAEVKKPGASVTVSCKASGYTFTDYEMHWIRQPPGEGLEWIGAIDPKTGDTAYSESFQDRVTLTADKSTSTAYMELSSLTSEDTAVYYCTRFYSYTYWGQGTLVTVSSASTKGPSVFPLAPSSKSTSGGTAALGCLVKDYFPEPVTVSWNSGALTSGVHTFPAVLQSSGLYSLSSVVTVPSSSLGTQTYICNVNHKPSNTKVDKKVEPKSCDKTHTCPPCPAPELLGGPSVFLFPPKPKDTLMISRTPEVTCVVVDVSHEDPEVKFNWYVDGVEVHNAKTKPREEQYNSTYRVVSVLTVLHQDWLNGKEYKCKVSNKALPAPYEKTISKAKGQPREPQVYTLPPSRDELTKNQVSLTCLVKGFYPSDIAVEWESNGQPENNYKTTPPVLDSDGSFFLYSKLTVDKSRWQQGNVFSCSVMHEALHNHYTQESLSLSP
light: B1 light
notes: homodimerized; mutation in both H chains; also called Ho Ab I332_15Y
B8: GpH7-B3 variant G236_10E/GpL16-k0 (antibody, human IgG1, kappa)
heavy: not shown
light: B1 light
notes: homodimerized; mutation in both H chains; also called Ho Ab G236_10E
B9: GpH7-B3 variant H268_13S/GpL16-k0 (antibody, human IgG1, kappa)
heavy: not shown
light: B1 light
notes: homodimerized; mutation in both H chains; also called Ho Ab H268_13S
B10: GpH7-B3 variant H268_09D/GpL16-k0 (antibody, human IgG1, kappa)
heavy: not shown
light: B1 light
notes: homodimerized; mutation in both H chains; also called Ho Ab H268_09D
B11: GpH7-B3 variant A330_01G/GpL16-k0 (antibody, human IgG1, kappa)
heavy: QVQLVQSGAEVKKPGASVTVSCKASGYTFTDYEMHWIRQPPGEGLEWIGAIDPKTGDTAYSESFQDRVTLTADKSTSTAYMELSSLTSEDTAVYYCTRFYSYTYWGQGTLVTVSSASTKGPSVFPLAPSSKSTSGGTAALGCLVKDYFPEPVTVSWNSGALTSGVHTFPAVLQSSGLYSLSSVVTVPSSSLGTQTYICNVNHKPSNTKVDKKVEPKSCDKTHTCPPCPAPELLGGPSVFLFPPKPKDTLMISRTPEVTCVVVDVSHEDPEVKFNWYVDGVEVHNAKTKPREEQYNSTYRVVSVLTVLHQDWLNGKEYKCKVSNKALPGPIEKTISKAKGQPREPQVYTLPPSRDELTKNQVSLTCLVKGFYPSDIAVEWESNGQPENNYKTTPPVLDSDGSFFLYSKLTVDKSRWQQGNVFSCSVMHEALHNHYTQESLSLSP
light: B1 light
notes: homodimerized; mutation in both H chains; also called Ho Ab A330_01G
B12: GpH7-B3 variant G237_04F/GpL16-k0 (antibody, human IgG1, kappa)
heavy: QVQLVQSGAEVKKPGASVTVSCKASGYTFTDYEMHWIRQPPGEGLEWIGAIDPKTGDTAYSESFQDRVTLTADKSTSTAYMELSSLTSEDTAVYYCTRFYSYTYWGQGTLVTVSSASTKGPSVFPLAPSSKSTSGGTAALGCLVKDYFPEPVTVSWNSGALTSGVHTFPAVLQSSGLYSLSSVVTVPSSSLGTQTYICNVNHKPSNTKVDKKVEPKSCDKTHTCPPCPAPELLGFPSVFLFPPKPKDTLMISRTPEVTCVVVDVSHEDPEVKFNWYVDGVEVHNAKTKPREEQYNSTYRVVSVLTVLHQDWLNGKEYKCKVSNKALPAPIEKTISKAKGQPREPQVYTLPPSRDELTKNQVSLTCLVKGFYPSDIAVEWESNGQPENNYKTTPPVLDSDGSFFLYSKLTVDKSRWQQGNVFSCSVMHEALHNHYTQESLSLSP
light: B1 light
notes: homodimerized; mutation in both H chains; also called Ho Ab G237_04F
B13: GpH7-B3 variant H268_18N/GpL16-k0 (antibody, human IgG1, kappa)
heavy: not shown
light: B1 light
notes: homodimerized; mutation in both H chains; also called Ho Ab H268_18N
B14: GpH7-B3 variant I332_14T/GpL16-k0 (antibody, human IgG1, kappa)
heavy: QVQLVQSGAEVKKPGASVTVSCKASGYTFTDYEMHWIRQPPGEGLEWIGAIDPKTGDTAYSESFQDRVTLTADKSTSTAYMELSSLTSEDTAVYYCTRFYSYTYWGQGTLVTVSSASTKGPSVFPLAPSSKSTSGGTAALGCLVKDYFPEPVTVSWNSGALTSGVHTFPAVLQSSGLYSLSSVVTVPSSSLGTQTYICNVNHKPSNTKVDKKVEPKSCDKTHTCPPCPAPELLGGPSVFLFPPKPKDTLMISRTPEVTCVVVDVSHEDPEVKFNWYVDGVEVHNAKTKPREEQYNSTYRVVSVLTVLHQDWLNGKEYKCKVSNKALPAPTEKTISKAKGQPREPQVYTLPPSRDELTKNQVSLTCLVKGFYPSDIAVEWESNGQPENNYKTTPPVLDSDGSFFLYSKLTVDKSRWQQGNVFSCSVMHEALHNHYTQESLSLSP
light: B1 light
notes: homodimerized; mutation in both H chains; label printed T332_14T, read as I332_14T; also called Ho Ab I332_14T
B15: GpH7-B3 variant I332_09D/GpL16-k0 (antibody, human IgG1, kappa)
heavy: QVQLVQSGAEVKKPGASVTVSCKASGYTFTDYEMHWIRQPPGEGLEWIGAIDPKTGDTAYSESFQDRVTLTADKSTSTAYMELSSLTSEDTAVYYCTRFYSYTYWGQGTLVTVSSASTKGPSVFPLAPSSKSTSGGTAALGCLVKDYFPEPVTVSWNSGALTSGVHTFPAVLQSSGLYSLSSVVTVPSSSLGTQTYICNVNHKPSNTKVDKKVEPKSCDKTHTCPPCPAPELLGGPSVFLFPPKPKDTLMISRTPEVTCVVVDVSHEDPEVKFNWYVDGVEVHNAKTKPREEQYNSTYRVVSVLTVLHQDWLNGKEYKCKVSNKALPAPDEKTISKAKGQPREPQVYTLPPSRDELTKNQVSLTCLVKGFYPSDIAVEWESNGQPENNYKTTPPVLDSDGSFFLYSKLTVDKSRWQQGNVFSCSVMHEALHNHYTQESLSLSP
light: B1 light
notes: homodimerized; mutation in both H chains; also called Ho Ab I332_09D
B16: GpH7-B3 variant A327_10E/GpL16-k0 (antibody, human IgG1, kappa)
heavy: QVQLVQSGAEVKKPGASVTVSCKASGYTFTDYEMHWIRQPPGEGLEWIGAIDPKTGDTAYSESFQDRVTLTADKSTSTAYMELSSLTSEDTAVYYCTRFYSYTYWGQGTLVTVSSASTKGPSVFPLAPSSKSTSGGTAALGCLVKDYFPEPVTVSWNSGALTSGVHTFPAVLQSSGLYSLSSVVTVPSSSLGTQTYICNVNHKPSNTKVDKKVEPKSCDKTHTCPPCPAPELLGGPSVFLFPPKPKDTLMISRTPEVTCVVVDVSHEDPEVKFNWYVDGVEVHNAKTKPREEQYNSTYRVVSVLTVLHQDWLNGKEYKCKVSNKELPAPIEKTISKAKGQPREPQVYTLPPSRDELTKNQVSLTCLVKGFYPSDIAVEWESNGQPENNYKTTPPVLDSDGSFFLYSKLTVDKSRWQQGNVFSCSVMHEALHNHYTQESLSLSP
light: B1 light
notes: homodimerized; mutation in both H chains; also called Ho Ab A327_10E
B17: GpH7-B3 variant H268_10E/GpL16-k0 (antibody, human IgG1, kappa)
heavy: not shown
light: B1 light
notes: homodimerized; mutation in both H chains; also called Ho Ab H268_10E
B18: GpH7-B3 variant I332_04F/GpL16-k0 (antibody, human IgG1, kappa)
heavy: not shown
light: B1 light
notes: homodimerized; mutation in both H chains; also called Ho Ab I332_04F
B19: GpH7-B3 variant H268_01G/GpL16-k0 (antibody, human IgG1, kappa)
heavy: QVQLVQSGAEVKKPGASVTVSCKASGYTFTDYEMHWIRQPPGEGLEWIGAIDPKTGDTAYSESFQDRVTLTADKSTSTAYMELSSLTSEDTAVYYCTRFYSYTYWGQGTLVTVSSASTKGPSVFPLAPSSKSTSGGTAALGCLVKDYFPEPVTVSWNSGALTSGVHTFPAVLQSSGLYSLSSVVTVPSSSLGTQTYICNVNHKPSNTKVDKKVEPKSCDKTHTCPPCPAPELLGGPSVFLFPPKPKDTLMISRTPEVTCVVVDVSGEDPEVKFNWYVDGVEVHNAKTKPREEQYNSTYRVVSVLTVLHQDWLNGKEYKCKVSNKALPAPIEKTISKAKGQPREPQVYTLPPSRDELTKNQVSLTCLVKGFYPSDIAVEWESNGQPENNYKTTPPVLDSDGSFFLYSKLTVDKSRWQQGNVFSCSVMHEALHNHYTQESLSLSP
light: B1 light
notes: homodimerized; mutation in both H chains; also called Ho Ab H268_01G
B20: GpH7-A5/GpH7-B3 variant S298_19Q/GpL16-k0 (antibody, human IgG1, kappa)
heavy 1: not shown
heavy 2: not shown
light: B1 light
notes: mutation in one H chain only; also called He Ab S298_19Q; S298Q
B21: GpH7-A5/GpH7-B3 variant T335_10E/GpL16-k0 (antibody, human IgG1, kappa)
heavy 1: not shown
heavy 2: not shown
light: B1 light
notes: mutation in one H chain only; also called He Ab T335_10E; T335E
B22: GpH7-A5/GpH7-B3 variant S337_20W/GpL16-k0 (antibody, human IgG1, kappa)
heavy 1: not shown
heavy 2: not shown
light: B1 light
notes: mutation in one H chain only; also called He Ab S337_20W; S337W
B23: GpH7-A5/GpH7-B3 variant S337_08L/GpL16-k0 (antibody, human IgG1, kappa)
heavy 1: not shown
heavy 2: not shown
light: B1 light
notes: mutation in one H chain only; also called He Ab S337_08L; S337L
B24: GpH7-A5/GpH7-B3 variant T335_11K/GpL16-k0 (antibody, human IgG1, kappa)
heavy 1: not shown
heavy 2: not shown
light: B1 light
notes: mutation in one H chain only; also called He Ab T335_11K; T335K
B25: GpH7-A5/GpH7-B3 variant T335_08L/GpL16-k0 (antibody, human IgG1, kappa)
heavy 1: not shown
heavy 2: not shown
light: B1 light
notes: mutation in one H chain only; also called He Ab T335_08L; T335L
B26: GpH7-A5/GpH7-B3 variant S337_01G/GpL16-k0 (antibody, human IgG1, kappa)
heavy 1: not shown
heavy 2: not shown
light: B1 light
notes: mutation in one H chain only; also called He Ab S337_01G; S337G
B27: GpH7-A5/GpH7-B3 variant S324_15Y/GpL16-k0 (antibody, human IgG1, kappa)
heavy 1: not shown
heavy 2: not shown
light: B1 light
notes: mutation in one H chain only; also called He Ab S324_15Y; S324Y
B28: GpH7-A5/GpH7-B3 variant S324_02A/GpL16-k0 (antibody, human IgG1, kappa)
heavy 1: not shown
heavy 2: not shown
light: B1 light
notes: mutation in one H chain only; also called He Ab S324_02A; S324A

These binders were tested against T1, FcγRIIb extracellular domain with … (assay: SPR (Biacore), captured antibody, FcγRIIb analyte; binding relative to GpH7-B3/GpL16-k0 = 100).

Row | Ho/Con_2b | Binder
1 | 170 % of control | B1
2 | 181 % of control | B2
3 | 106 % of control | B3
4 | 207 % of control | B4
5 | 175 % of control | B5
6 | 166 % of control | B6
7 | 109 % of control | B7
8 | 114 % of control | B8
9 | 186 % of control | B9
10 | 298 % of control | B10
11 | 102 % of control | B11
12 | 140 % of control | B12
13 | 179 % of control | B13
14 | 106 % of control | B14
15 | 182 % of control | B15
16 | 148 % of control | B16
17 | 275 % of control | B17
18 | 117 % of control | B18
19 | 158 % of control | B19

These binders were tested against T2, FcγRIa extracellular domain with C-terminal His tag (human, UniProt P12314 16-292) (assay: SPR Biacore, relative FcγRIa binding vs GpH7-A5/GpH7-B3/GpL16-k0).
T2 construct: extracellular domain; also called FcgRI; CD64; not shown: His tag at the C terminus
T2 sequence (P12314 16-292): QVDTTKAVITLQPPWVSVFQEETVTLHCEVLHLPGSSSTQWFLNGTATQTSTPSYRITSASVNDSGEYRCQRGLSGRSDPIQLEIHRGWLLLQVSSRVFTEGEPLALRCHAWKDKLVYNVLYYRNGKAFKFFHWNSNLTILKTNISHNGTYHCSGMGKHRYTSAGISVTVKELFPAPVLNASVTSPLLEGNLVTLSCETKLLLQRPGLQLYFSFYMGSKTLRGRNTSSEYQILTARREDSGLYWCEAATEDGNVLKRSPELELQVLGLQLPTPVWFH

Row | He/Con_1a | Binder
20 | 109 % of HeCon Ab (=100) | B20
21 | 109 % of HeCon Ab (=100) | B21
22 | 105 % of HeCon Ab (=100) | B22
23 | 105 % of HeCon Ab (=100) | B23
24 | 111 % of HeCon Ab (=100) | B24
25 | 115 % of HeCon Ab (=100) | B25
26 | 107 % of HeCon Ab (=100) | B26
27 | 114 % of HeCon Ab (=100) | B27
28 | 103 % of HeCon Ab (=100) | B28
